Results on 1 molecule are retold here after paper PMC7755189, “Phosphorylation of seryl-tRNA synthetase by ATM/ATR is essential for hypoxia-induced angiogenesis”.

In the data set the target is SerRS WT (Homo sapiens, UniProt P49591 1-514). The data set can be described thus: EMSA; EMSA: 20 mM Tris-HCl pH 8.0, 60 mM KCl, 5 mM MgCl2, 0.1 mg/mL BSA, 10 ng/uL poly(dG-dC), 1 mM DTT, 30 min, room temperature; 0.08 pmol labeled DNA; 5% native PAGE. The conditions noted are these: protein: recombinant; tags: C-terminal His6; chain copies: 2; label: 5'-32P; annealed oligonucleotides.
SerRS WT, sequence (P49591 whole entry): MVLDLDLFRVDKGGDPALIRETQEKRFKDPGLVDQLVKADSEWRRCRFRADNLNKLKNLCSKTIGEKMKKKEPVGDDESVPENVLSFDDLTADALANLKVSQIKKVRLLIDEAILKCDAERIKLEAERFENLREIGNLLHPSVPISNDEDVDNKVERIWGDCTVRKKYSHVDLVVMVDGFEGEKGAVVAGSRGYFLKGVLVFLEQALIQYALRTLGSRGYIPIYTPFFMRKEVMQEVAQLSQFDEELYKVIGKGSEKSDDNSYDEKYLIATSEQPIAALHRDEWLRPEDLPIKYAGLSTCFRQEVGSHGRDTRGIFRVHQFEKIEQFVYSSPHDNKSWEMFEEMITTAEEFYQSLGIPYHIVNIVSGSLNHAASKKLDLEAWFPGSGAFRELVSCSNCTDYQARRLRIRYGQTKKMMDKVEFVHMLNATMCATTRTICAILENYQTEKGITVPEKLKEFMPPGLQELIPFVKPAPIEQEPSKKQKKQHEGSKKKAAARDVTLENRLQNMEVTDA

B1: VEGFA promoter SerRS binding site 27 bp (dsDNA)
DNA 1: GGCGGGGCGGAGCCATGCGCCCCCCCC
DNA 2: GGGGGGGGCGCATGGCTCCGCCCCGCC
For B1, the binding result is on record as “binds”.
